Data from patent US20150132307A1 (Hoffmann-La Roche, published 2015).

T1: Human recombinant soluble TWEAK (Example 6) (human, UniProt O43508 99-249, limits assumed)
T1 sequence: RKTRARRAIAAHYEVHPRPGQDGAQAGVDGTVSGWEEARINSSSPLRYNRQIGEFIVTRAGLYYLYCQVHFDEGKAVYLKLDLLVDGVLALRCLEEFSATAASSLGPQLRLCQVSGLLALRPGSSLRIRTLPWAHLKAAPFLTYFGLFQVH

T2: human Flag-tagged soluble TWEAK (amino acids 106-249) (human, UniProt O43508 106-249)
T2 construct: The sentence gives amino acids 106-249 without naming the entry; also called Human TWEAK; not shown: Flag tag
T2 sequence: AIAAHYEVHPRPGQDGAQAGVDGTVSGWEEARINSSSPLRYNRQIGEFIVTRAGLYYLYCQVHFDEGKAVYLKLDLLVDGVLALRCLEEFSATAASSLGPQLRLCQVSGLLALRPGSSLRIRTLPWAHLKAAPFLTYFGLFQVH

T3: Biotinylated human soluble TWEAK (amino acids 99-249 of SEQ ID NO: 68) (human, UniProt O43508 99-249, biotinylated)
T3 construct: also called Human TWEAK
T3 sequence: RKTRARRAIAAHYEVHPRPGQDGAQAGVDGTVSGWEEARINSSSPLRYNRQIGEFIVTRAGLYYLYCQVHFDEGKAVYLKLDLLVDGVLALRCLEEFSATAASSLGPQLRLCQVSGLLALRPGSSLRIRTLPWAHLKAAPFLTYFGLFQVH

T4: Mouse soluble TWEAK (untagged, Example 5) (mouse, UniProt O54907 105-249, limits assumed)
T4 construct: also called Murine TWEAK
T4 sequence: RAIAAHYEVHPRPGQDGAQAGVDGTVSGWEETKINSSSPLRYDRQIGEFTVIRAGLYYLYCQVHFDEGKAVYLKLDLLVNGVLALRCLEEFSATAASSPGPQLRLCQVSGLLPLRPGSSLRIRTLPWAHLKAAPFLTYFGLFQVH

T5: IL-17 F/F (human, UniProt Q96PD4 31-163)
T5 construct: read as the homodimer of IL17F
T5 sequence: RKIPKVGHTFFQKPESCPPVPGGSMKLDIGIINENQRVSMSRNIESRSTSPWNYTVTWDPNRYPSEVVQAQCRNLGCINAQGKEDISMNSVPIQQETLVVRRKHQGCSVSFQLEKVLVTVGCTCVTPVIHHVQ

T6: Recombinant human TWEAK (R&D Systems; Cat. #1090-TW/CF) (human, UniProt O43508 97-249, limits assumed)
T6 sequence: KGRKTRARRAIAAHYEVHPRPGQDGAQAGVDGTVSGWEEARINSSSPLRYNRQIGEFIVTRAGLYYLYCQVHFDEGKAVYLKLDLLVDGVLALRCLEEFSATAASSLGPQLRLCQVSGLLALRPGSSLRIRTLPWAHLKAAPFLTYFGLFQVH


How the values were obtained:
[1] = target: T1, Human recombinant soluble TWEAK …; assay: cell-based or functional assay
[2] = target: T2, human Flag-tagged soluble TWEAK (amino …); assay: receptor interaction ELISA: Flag-TWEAK 2.5 ng/ml preincubated with antibody, then on coated human Fn14:Fc (competitor m21)
Description: 96-well Maxisorp® plates (Nunc) were coated with 100 μl 1 μg/ml human Fn14:Fc (extracellular domain of human Fn14 (amino acids 1-75 of SEQ ID NO: 98) fused to Fc portion of human IgG1) in PBS per well for 1.5 h at room temperature and blocked with a solution of 5% FBS in PBS for 30 minutes at room temperature under shaking. […] After washing the Fn14-coated plate once with wash buffer (0.1% Tween® 20 in PBS), 100 μl of the TWEAK-antibody solution were transferred to each well and the plate was incubated for 1 h at room temperature, followed by four washes with wash buffer. Wells were filled with 100 μl of anti-FLAG-HRP detection antibody, diluted 1:5000 in blocking buffer, and incubated for 1 h at room temperature. After four more wash steps, the signal was developed by addition of 100 μl 3,3,5,5-Tetramethylbenzidine (TMB) solution for approximately ten minutes. The reaction was stopped by adding 100 μl of 1 N HCl, and absorbance measured at 450 nm (reference wavelength 620 nm).

[3] = target: T3, Biotinylated human soluble TWEAK (amino …); assay: SPR (Biacore 2000), biotinylated soluble TWEAK on streptavidin chip, antibody 100 nM as analyte, 25 C
Description: A Biacore 2000 instrument was used with a Biacore streptavidin coated sensor mounted into the system. The system buffer HBS-ET (10 mM HEPES pH 7.4, 150 mM NaCl, 1 mM EDTA, 0.05% Tween® 20) was used at a flow rate of 100 μl/min. The sample buffer was the system buffer. Biotinylated human soluble TWEAK (amino acids 99-249 of SEQ ID NO: 68) and biotinylated murine soluble TWEAK (amino acids 81-225 of SEQ ID NO: 69) was immobilized on different flow cells on the SA sensor at 150 RU each. The flow cell FC1 was used as a blank reference cell. Each antibody was injected into the system as an analyte at 100 nM at 100 μl/min for 2 min association time. The dissociation of the immunecomplexes were monitored for 5 min. The sensor surface was washed with HBS-ET for 10 seconds and regenerated using 2×2 minutes injections with 10 mM glycine pH 2.25. This procedure was done at 25° C. The kinetically rate limiting step of the complex dissociation phase in the interval [240 s-300 s] was taken to calculate the dissociation rate kd [1/s] (Biacore Evaluation Software 4.0). According to the equation t1/2 diss=ln(2)/(60×kd), the half-life of the immunocomplexes in minutes was calculated.

[4] = target: T4, Mouse soluble TWEAK (untagged, Example …); assay: receptor interaction ELISA: mouse soluble TWEAK 4 ng/ml preincubated with antibody, then on coated mouse Fn14:Fc (competitor m22)
Description: Briefly, Maxisorp plates were coated with mouse Fn14:Fc (extracellular domain of mouse Fn14 (amino acids 1-75 of SEQ ID NO: 98) fused to Fc portion of human IgG1) as described above for human Fn14:Fc, followed by blocking and washing. […] After 1 h of incubation at room temperature and four washes, biotinylated anti-mouse TWEAK antibody at 125 ng/ml in blocking buffer was added for 1 h at room temperature, followed by another four wash steps. The TWEAK antibody was detected by incubation with streptavidin-HRP, diluted 1:5000 in blocking buffer, for 30 minutes at room temperature. Signal was developed and absorbance measured as described above.

human IL17A/A = human IL17A/A (human, UniProt Q16552 24-155, limits assumed); assay: SPR (BIAcore T100), antibody captured by anti-human F(ab')2, IL17 as analyte, 25 C, apparent KD, 1:1 model
Chain of human IL17A/A (Q16552 24-155 limits assumed): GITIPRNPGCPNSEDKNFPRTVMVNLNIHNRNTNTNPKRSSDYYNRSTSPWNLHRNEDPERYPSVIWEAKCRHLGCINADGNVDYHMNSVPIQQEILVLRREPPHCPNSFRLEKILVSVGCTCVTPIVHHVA
Description: (§1) Around 12000 resonance units (RU) of the capturing system (10 μg/ml goat anti human F(ab′)2; Order Code: 28958325; GE Healthcare Bio-Sciences AB, Schweden) were coupled on a CMS chip at pH 5.0 by using an amine coupling kit supplied by the GE Healthcare. The sample and system buffer was PBS-T (10 mM phosphate buffered saline including 0.05% Tween20) pH 7.4. The bispecific antibody was captured by injecting a 50 nM solution for 1 min at a flow of 10 μl/min. Association was measured by injection human IL17 in various concentrations in solution for 3 min at a flow of 30 μl/min starting with 50 nM in 1:1 dilutions. The dissociation phase was monitored for up to 5 min and triggered by switching from the sample solution to running buffer. The surface was regenerated by two times 60 sec. washing with a glycin pH 2.1 solution at a flow rate of 30 μl/min. Bulk refractive index differences were corrected by subtracting the response obtained from a goat anti human F(ab′)2 surface. Blank injections are also subtracted (=double referencing). For calculation of apparent KD and other kinetic parameters the Langmuir 1:1 model was used.

IL-17 F/F = target: T5, IL-17 F/F; assay: SPR (BIAcore T100), antibody captured by anti-human F(ab')2, IL17 as analyte, 25 C
Description: as §1

[5] = target: T6, Recombinant human TWEAK (R&D Systems; …); assay: cell-based or functional assay
IL-17 A/F = target: T7, IL-17 A/F (human, UniProt Q16552 24-155; Q96PD4 31-163); assay: SPR (BIAcore T100), antibody captured by anti-human F(ab')2, IL17 as analyte, 25 C, 1:1 model
T7 construct: read as the heterodimer of IL17A and IL17F
T7 sequence (Q16552 24-155 limits assumed, one chain of several): as the sequence (Q16552 24-155 limits assumed) above
Description: as §1

Inhibition of IL-8 Secretion IC50 [ng/ml] (A375 cells) [1] [ng/mL] | IC50 [2] [ng/mL] | t/2 diss [min] 25° C. [3] [min] | IC50 [4] [ng/mL] | Kd (human IL17A/A) [nM] | IC50 (nM) per valency, Tweak induced HFLS proliferation (CellTiter Glo) [5] [nM] | Kd (IL-17 A/F) [nM] | Binder | binding result (IL-17 F/F)
104 | 2.6 | 147 | – | – | – | – | <TWEAK> 305chi (antibody, human IgG1, kappa, V domains shown, Chimer: rabbit variable domains with human kappa and human IgG1 constant regions) VH: QEQLVESGGGLVQPGGSLTLSCKASGFDFSTYYMSWVRQAPGKGLEWIGTVYVRQGTTYYASWLNGRFTISSDNAQNTVDLKMNSLTAADTATYFCAKGGYNYDDAFVIWGPGTLVTVSF VL: AIEMTQTPFSVSAAVGGTVTINCQASQNIYSNLAWYQQKPGQPPKLLMYTASYLASGVPSRFKGSGSRTEYTLTISGVQCADAATYYCQTAYYNSRPDTVAFGGGTEVVVKR | –
109 | 2.8 | – | 3.6 | – | – | – | <TWEAK> 304 (rabbit) (antibody, V domains shown, Rabbit parent antibody) VH: QSLEESGGDLVKPGASLTLTCKASGFSFSSTYYMCWVRQAPGKGLEWIGCIYVGSSGAPYYASWAKGRFTISKTSSTTVALQMTSLTPADTATYVCTRSVHFGDLWGPGTLVTVSS VL: DVVMTQTPSPVSAAVGGTVTIKCQASQSIGNDLSWYQQKPGQRPKLLIYSVSTLASGVPSRFKGSGSGTEYSLTISDVQCADAATYYCQCIDYGNNYVGNTFGGGTEVVVK | –
– | – | – | – | 0.15 | 0.065 | 0.25 | Bispecific <Tweak-IL-17> #2 antibody (bispecific antibody, human IgG1, kappa, Bivalent CrossMab (CH1-CL exchanged, WO 2009/080253), IgG1 knobs-into-holes) heavy 1: not shown heavy 2: not shown light 1: DIVMTQSPLSLPVTPGEPASISCRSSQSLVHSNGDTYFHWYLQKPGQSPQLLIYKVSNRFSGVPDRFSGSGSGTDFTLKISRVEAEDVGVYYCSQTTHAPFTFGQGTKLEIKRTVAAPSVFIFPPSDEQLKSGTASVVCLLNNFYPREAKVQWKVDNALQSGNSQESVTEQDSKDSTYSLSSTLTLSKADYEKHKVYACEVTHQGLSSPVTKSFNRGEC light 2: DIQMTQSPSSVSASVGDRVTITCQASQNIYSNLAWYQQKPGKAPKLLIYTASYLASGVPSRFSGSGSGTDYTLTISSLQPEDFATYYCQTAYYNSRPDTVAFGGGTKVEIKSSASTKGPSVFPLAPSSKSTSGGTAALGCLVKDYFPEPVTVSWNSGALTSGVHTFPAVLQSSGLYSLSSVVTVPSSSLGTQTYICNVNHKPSNTKVDKKVEPKSC | no binding (tested: IL17 injected starting with 50 nM)
128 | 3.4 | – | 4.7 | – | – | – | <TWEAK> 301 (rabbit) (antibody, V domains shown, Rabbit parent antibody; purified antibody or hybridoma supernatant was used) VH: QSLEESGGGLVKPGASLTLTCTASGFTFNANYWICWVRQAPGKGLEWIACIYGGGNSGAYYASWATGRFTISRTSSTTVTLQMTSLTAADTATYFCARGPISRDLWGPGTLVTVSL VL: DVVMTQTPASVSEPVGGTVTIKCQASQSIYSSLAWYQQKPGQPPKLLIYDAFDLASGVSSRFTGSGSGTQFTLTISDLECADAATYYCQSTDYGNSWDGNPFGGGTEVVVT | –
